Results as given in PMC12139779 (bioRxiv, 2025).

Biological target: T1, Human KLHDC2 (kelch domain, amino acids 1–362) (human, UniProt Q9Y2U9 1-362, biotin (biotinylated with BirA enzyme))
T1 sequence: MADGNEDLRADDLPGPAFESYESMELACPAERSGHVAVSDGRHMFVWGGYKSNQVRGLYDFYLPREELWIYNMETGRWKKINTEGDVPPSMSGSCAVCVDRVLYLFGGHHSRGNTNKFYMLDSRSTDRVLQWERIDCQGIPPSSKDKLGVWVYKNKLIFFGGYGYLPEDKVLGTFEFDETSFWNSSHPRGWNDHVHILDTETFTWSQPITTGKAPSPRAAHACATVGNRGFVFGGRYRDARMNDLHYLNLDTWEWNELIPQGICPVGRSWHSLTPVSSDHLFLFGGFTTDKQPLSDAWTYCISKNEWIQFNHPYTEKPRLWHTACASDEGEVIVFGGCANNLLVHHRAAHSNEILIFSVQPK
Experiment: fluorescence polarisation

SPPPMAGG [SelK 8-mer (SPPPMAGG)]
binding result: binds
